Values of other authors in US7759315B2, “Treatment of inflammatory conditions of the intestine” (CSL Behring AG, priority 2005, dated 2010).
Non-standard residues stand in square brackets, D forms with d. No end group written: not given here. Nal = naphthylalanine (source code Z); Aib = CC(C)(N)C(=O)O

How the values were obtained:
[1] = percent helicity; for He (%): micelles; for He (%) free: free peptide
LCAT = biological target: T1, LCAT (Homo sapiens, UniProt P04180)
T1 sequence (P04180 25-440): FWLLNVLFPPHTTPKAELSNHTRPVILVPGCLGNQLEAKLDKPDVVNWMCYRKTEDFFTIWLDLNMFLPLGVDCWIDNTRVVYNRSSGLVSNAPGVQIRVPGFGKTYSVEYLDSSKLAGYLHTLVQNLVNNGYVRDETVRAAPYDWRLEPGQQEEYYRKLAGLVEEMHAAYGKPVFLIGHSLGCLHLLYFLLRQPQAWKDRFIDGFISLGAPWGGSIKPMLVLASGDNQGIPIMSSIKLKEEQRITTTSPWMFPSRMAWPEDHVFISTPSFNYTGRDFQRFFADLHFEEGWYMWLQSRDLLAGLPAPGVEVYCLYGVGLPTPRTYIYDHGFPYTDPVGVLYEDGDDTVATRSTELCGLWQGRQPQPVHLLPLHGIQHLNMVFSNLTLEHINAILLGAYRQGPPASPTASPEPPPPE

ACTIVITY (%) LCAT (LCAT) [%] | Substance | Crohn's disease activity index (CDAI) (Crohn's disease patients) | histopathological and endoscopic inflammation (Crohn's disease patients) | He (%) [1] | He (%) free [1]
 | Infliximab | significant reduction | attenuation |  | 
76 | PVLDLFRELWEELKQKLK* (not fully specified (N-terminus, C-terminus); printed as PVLDLFRELWEELKQKLK*) [Peptide 199] |  |  | 77% | 
60 | PVLDLFRELWNELLEALKQKLK [Peptide 15] |  |  | 60% | 
29 | PVLDLFREWLNELLEALKQKLK [Peptide 37] |  |  | 75% | 
15 | PVLDLFRNLLEELLEALQKKLK [Peptide 66] |  |  | 82% | 
22 | PVLDLFRNLLEKLLEALEQKLK [Peptide 49] |  |  | 65% | 
0 | PVLDLFRWLLNEXLEALKQKLK (PVLDLFRWLLNE[Aib]LEALKQKLK; not fully specified (C-terminus)) [Peptide 108] |  |  | 55% | 
20 | PVLDLFWELLNEXLEALKQKLK (PVLDLFWELLNE[Aib]LEALKQKLK; not fully specified (C-terminus)) [Peptide 51] |  |  | 82% | 
25 | PVLDLWRELLNEXLEALKQKLK (PVLDLWRELLNE[Aib]LEALKQKLK; not fully specified (C-terminus)) [Peptide 41] |  |  | 73% | 
31 | PVLDWFRELLNELLEALKQKLK [Peptide 35] |  |  | 59% | 49 (sp) %
32 | PVLDZFRELLNELLEALKQKLK (PVLD[Nal]FRELLNELLEALKQKLK; not fully specified (C-terminus)) [Peptide 34] |  |  | 67% | 
39 | PVLELFENLLERGLDALQKKLK [Peptide 154] |  |  | 76% | 
75 | PVLELFENLLERLGDALQKKLK [Peptide 148] |  |  | 76% | 
86 | PVLELFENLLERLLDALQKKLK [Peptide 146] |  |  | 100% | 
24 | PVLELFENLLERLLDAWQKKLK [Peptide 164] |  |  | 66% | 
28 | PVLELFENLLERLLDWLQKKLK [Peptide 160] |  |  | 73% | 

ACTIVITY (%) LCAT (LCAT) [%] | Substance | Crohn's disease activity index (CDAI) (Crohn's disease patients) | histopathological and endoscopic inflammation (Crohn's disease patients) | He (%) [1] | He (%) free [1]
26 | PVLELFENLLERLWDALQKKLK [Peptide 163] |  |  | 53% | 
63 | PVLELFENLWERLLDALQKKLK [Peptide 149] |  |  | 54% | 
27 | PVLELFENWLERLLDALQKKLK [Peptide 162] |  |  | 83% | 
88 | PVLELFRELLEELKQKLK* (not fully specified (N-terminus, C-terminus); printed as PVLELFRELLEELKQKLK*) [Peptide 194] |  |  | 93% | 
20 | PVWDEFREKLNEXLEALKQKLK (PVWDEFREKLNE[Aib]LEALKQKLK; not fully specified (C-terminus)) [Peptide 52] |  |  | sp | 
7 | P~LDLFRELLNELLEALKQKLK (PLDLFRELLNELLEALKQKLK) [Peptide 85] |  |  | 61% | 
19 | P~~~LFRELLNELLEALKQKLK (PLFRELLNELLEALKQKLK) [Peptide 55] |  |  | 72% | 
1 | P~~~~~~~LLNELLEALKQKLK (PLLNELLEALKQKLK) [Peptide 104] |  |  | 49% | 
0 | klkqklaellenllerfldlvp (KLKQKLAELLENLLERFLDLVP; not fully specified; D-amino acids; D-Lys; D-Leu; D-Gln; D-Ala; D-Glu; D-Asn; D-Arg; D-Phe; D-Asp; D-Val; D-Pro) [Peptide 107] |  |  | sp | 
111 | pVLELFENLLERLLDALQKKLK ([dP]VLELFENLLERLLDALQKKLK; not fully specified (C-terminus); printed as pVLELFENLLERLLDALQKKLK) [Peptide 144] |  |  | 88% | 89%
7 | pllellkellqellealkqklk ([dP][dL][dL][dE][dL][dL][dK][dE][dL][dL][dQ][dE][dL][dL][dE][dA][dL][dK][dQ][dK][dL][dK]; not fully specified (C-terminus); printed as pllellkellqellealkqklk) [Peptide 87] |  |  | 100% | 
25 | pvldefreklneXlealkgklk ([dP][dV][dL][dD][dE][dF][dR][dE][dK][dL][dN][dE][Aib][dL][dE][dA][dL][dK][dQ][dK][dL][dK]) [Peptide 44] |  |  | 86% | 
5 | pvldlfrellneXlealkgklk ([dP][dV][dL][dD][dL][dF][dR][dE][dL][dL][dN][dE][Aib][dL][dE][dA][dL][dK][dQ][dK][dL][dK]) [Peptide 96] |  |  | 85% | 
2 | pvldlfrellneXlealkqklk [Peptide 100] |  |  | 92% | 
14 | ~VLDLFRELLNELLEALKQKLK [Peptide 67] |  |  | 90% | 
